One block for each binder: values may come before it.
Tests used:
[1] = biological target: T1, APRIL (Acro Biosystems, Cat: APL-H52D1) (UniProt O75888 115-250, limits assumed); assay: ELISA, APRIL coated; reference telitacicept
T1 construct: also called ARPIL
T1 sequence (looked up): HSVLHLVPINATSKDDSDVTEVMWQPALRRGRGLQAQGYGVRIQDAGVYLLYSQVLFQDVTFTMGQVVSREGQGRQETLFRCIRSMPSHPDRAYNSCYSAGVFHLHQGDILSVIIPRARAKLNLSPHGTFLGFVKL

IFNAR1 [2] = biological target: T2, IFNAR1 (human, UniProt P17181 28-557); assay: cell-based or functional assay
T2 sequence (looked up): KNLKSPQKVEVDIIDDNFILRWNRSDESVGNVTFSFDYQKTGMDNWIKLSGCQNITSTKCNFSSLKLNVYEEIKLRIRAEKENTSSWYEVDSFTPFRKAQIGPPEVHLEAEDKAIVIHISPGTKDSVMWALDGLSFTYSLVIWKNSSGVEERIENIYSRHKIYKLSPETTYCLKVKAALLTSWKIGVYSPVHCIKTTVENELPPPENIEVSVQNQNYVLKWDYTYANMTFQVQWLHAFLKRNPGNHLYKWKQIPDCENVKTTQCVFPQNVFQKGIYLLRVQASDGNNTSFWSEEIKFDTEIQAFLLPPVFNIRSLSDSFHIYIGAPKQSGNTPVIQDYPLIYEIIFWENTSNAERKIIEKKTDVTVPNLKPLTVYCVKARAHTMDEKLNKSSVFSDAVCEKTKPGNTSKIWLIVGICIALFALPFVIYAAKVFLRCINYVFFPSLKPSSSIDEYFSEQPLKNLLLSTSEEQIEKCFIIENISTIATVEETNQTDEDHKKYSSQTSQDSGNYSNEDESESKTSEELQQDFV

[3] = biological target: T3, recombinant human APRIL (R&D cat: 5860-AP-010/CF) (human, UniProt O75888 105-250, limits assumed); assay: cell-based or functional assay
T3 sequence (looked up): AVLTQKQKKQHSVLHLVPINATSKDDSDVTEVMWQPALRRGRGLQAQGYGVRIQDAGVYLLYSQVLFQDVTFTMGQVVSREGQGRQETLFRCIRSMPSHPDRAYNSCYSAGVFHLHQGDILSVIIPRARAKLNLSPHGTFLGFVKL

[4] = biological target: T4, recombinant human BAFF (R&D cat: 7537-BF-025/CF) (human, UniProt Q9Y275 134-285); assay: cell-based or functional assay
IFNAR1 [5] = biological target: T2, IFNAR1; assay: cell-based or functional assay; remark: listed apart in the source
[6] = biological target: T1, APRIL (Acro Biosystems, Cat: APL-H52D1); assay: ELISA, APRIL coated at 1 ug/mL, anti-human Fc-HRP, OD450
Experimental: The capabilities of fusion proteins B606401, B637302, B746201, and B805201 to bind to BAFF and APRIL were assessed by ELISA as follows:
BAFF (PeproTech, Cat: 310-13) or ARPIL (Acro Biosystems, Cat: APL-H52D1) was diluted to 1 μg/mL with PBS, and a 96-well plate was coated with the dilution overnight at 4° C. The plate was washed with PBST and blocked with Blocking Buffer (PBST containing 1% BSA) at 37° C. for 1 h. The plate was tapped. The test antibodies were diluted with Blocking Buffer. Incubation was performed at 37° C. for 1.5 h. The plate was washed with PBST. An HRP-mouse anti-human Fc antibody (GenScript, Cat: A01854-200) was diluted with Blocking Buffer. Incubation was performed at 37° C. for 40 min. The plate was washed with PBST. 100 μL of TMB substrate solution (Biopanda, Cat: TMB-S-003) was added, and color development was performed at 37° C. for 3 min. 100 μL of ELISA stop solution (Solarbio, Cat: C1058) was added. OD450 was measured.

[7] = biological target: T4, recombinant human BAFF (R&D cat: …); assay: cell-based or functional assay; remark: listed apart in the source

EC50 relative to telitacicept [1]: 0.333 fold | IC50, inhibition of IFN-alpha-induced in vitro differentiation of B cells into plasma cells (CD27+ CD38+) (IFNAR1 [2]): 1.9 nM | CD27+ CD38+ plasma cell count, mean value, BAFF + APRIL-induced (both ligands together), drug at 10 nM (IgG1: 2687) [3]: 575 cells | CD27+ CD38+ plasma cell count, mean value, BAFF + APRIL-induced (both ligands together), drug at 100 nM (IgG1: 2496) [3]: 520 cells | CD27+ CD38+ plasma cell count, mean value, BAFF + APRIL-induced (both ligands together), drug at 1000 nM (IgG1: 2279) [3]: 410 cells | CD27+ CD38+ plasma cell count, mean value, BAFF + APRIL-induced (both ligands together), drug at 100 nM (IgG1: 2496) [4]: 520 cells | CD27+ CD38+ plasma cell count, mean value, BAFF + APRIL-induced (both ligands together), drug at 1000 nM (IgG1: 2279) [4]: 410 cells | IC50 (nM), inhibition of the activity of type I interferons (IFN-beta, HEK-Blue IFN-alpha/beta reporter cells) (IFNAR1 [5]): 1.64 nM | EC50 [6]: 0.179 nM | Emax [6]: 2.8
B1: B746201 (other)
heavy: EVQLVQSGAEVKKPGESLKISCKGSGYIFTNYWIAWVRQMPGKGLESMGIIYPGDSDIRYSPSFQGQVTISADKSITTAYLQWSSLKASDTAMYYCARHDIEGFDYWGRGTLVTVSSASTKGPSVFPLAPSSKSTSGGTAALGCLVKDYFPEPVTVSWNSGALTSGVHTFPAVLQSSGLYSLSSVVTVPSSSLGTQTYICNVNHKPSNTKVDKRVEPKSCDKTHTCPPCPAPEFEGGPSVFLFPPKPKDTLMISRTPEVTCVVVDVSHEDPEVKFNWYVDGVEVHNAKTKPREEQYNSTYRVVSVLTVLHQDWLNGKEYKCKVSNKALPASIEKTISKAKGQPREPQVYTLPPSRDELTKNQVSLTCLVKGFYPSDIAVEWESNGQPENNYKTTPPVLDSDGSFFLYSKLTVDKSRWQQGNVFSCSVMHEALHNHYTQKSLSLSPGKGGGGSGGGGSGGGGSMLQMAGQCSQNEYFDSLLHACIPCQLRCSSNTPPLTCQRYCSTSCREEQGEFYDHLLRDCISCASICGQHPKQCAAFCE
light: EIVLTQSPGTLSLSPGERATLSCRASQSVSSSFFAWYQQKPGQAPRLLIYGASSRATGIPDRLSGSGSGTDFTLTITRLEPEDFAVYYCQQYDSSAITFGQGTRLEIKRTVAAPSVFIFPPSDEQLKSGTASVVCLLNNFYPREAKVQWKVDNALQSGNSQESVTEQDSKDSTYSLSSTLTLSKADYEKHKVYACEVTHQGLSSPVTKSFNRGEC
notes: Fusion protein of anifrolumab, TACI-19-16 and BCMA-ECD-2 (C-terminus of the heavy chain)

EC50 relative to telitacicept [1]: 0.333 fold | Flow cytometry proliferating B cell proportion (%), mean value, BAFF-induced, drug at 10 nM (IgG1: 40.15) [7]: 20.4% | Flow cytometry proliferating B cell proportion (%), mean value, BAFF-induced, drug at 100 nM (IgG1: 40.60) [7]: 24.3% | Flow cytometry proliferating B cell proportion (%), mean value, BAFF-induced, drug at 1000 nM (IgG1: 33.97) [7]: 15% | IC50, inhibition of IFN-alpha-induced in vitro differentiation of B cells into plasma cells (CD27+ CD38+) (IFNAR1 [2]): 6.21 nM | CD27+ CD38+ plasma cell count, mean value, BAFF + APRIL-induced (both ligands together), drug at 10 nM (IgG1: 2687) [3]: 434 cells | CD27+ CD38+ plasma cell count, mean value, BAFF + APRIL-induced (both ligands together), drug at 100 nM (IgG1: 2496) [3]: 426 cells | CD27+ CD38+ plasma cell count, mean value, BAFF + APRIL-induced (both ligands together), drug at 1000 nM (IgG1: 2279) [3]: 438 cells | CD27+ CD38+ plasma cell count, mean value, BAFF + APRIL-induced (both ligands together), drug at 100 nM (IgG1: 2496) [4]: 426 cells | CD27+ CD38+ plasma cell count, mean value, BAFF + APRIL-induced (both ligands together), drug at 1000 nM (IgG1: 2279) [4]: 438 cells | IC50 (nM), inhibition of the activity of type I interferons (IFN-beta, HEK-Blue IFN-alpha/beta reporter cells) (IFNAR1 [5]): 1.63 nM | EC50 [6]: 0.182 nM | Emax [6]: 2.85
B2: B805201 (other)
heavy: EVQLVQSGAEVKKPGESLKISCKGSGYIFTNYWIAWVRQMPGKGLESMGIIYPGDSDIRYSPSFQGQVTISADKSITTAYLQWSSLKASDTAMYYCARHDIEGFDYWGRGTLVTVSSASTKGPSVFPLAPSSKSTSGGTAALGCLVKDYFPEPVTVSWNSGALTSGVHTFPAVLQSSGLYSLSSVVTVPSSSLGTQTYICNVNHKPSNTKVDKRVEPKSCDKTHTCPPCPAPEFEGGPSVFLFPPKPKDTLMISRTPEVTCVVVDVSHEDPEVKFNWYVDGVEVHNAKTKPREEQYNSTYRVVSVLTVLHQDWLNGKEYKCKVSNKALPASIEKTISKAKGQPREPQVYTLPPSRDELTKNQVSLTCLVKGFYPSDIAVEWESNGQPENNYKTTPPVLDSDGSFFLYSKLTVDKSRWQQGNVFSCSVMHEALHNHYTQKSLSLSPGKGGGGSGGGGSGGGGSSTSCREEQGEFYDHLLRDCISCASICGQHPKQCAAFCE
light: B1 light
notes: Fusion protein of anifrolumab and TACI-19-16 (C-terminus of the heavy chain); also called B80521
